{
  "source": "paper PMC6651876",
  "about": "“PEA-15 C-Terminal Tail Allosterically Modulates Death-Effector Domain Conformation and Facilitates Protein–Protein Interactions” (International Journal of Molecular Sciences, 2019)",
  "binders": {"B1": {"name": "Fas-associated death domain (FADD) protein, full length (natural protein, UniProt Q13158 1-208, looked up)", "chain": "MDPFLVLLHSVSSSLSSSELTELKFLCLGRVGKRKLERVQSGLDLFSMLLEQNDLEPGHTELLRELLASLRRHDLLRRVDDFEAGAAAGAAPGEEDLCAAFNVICDNVGKDWRRLARQLKVSDTKIDSIEDRYPRNLTERVRESLRIWKNTEKENATVAHLVGALRSCQMNLVADLVQEVQQARDLQNRSGAMSPMSWNSDASTSEAS", "notes": "FADD (Fas-associated death domain protein), full length; Cloned into pET-28b between NdeI and BamHI"}},
  "molecular_target": "T1, PEA-15 S104D/S116D double mutant (PEA-15DD) (UniProt Q15121 1-130, S104D | S116D)",
  "T1 construct": "PEA-15 (phosphoprotein enriched in astrocytes, 15 kDa), full length, with the phosphomimetic mutations S104D and S116D; Made by site-directed mutagenesis of the PEA-15 plasmid (pET-28b); expressed and purified as the wild type",
  "T1 sequence (Q15121 whole entry S104D/S116D)": "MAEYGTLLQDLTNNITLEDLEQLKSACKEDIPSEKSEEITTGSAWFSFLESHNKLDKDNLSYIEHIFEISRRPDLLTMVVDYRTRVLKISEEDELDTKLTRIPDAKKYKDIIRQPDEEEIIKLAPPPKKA",
  "assay": "NMR titration; data not shown: spectra of uniformly labeled PEA-15DD with unlabeled FADD at molar ratios 1:0.5, 1:1 and 1:2; 20 mM sodium phosphate pH 7.0, 150 mM NaCl, 1 mM DTT",
  "settings": "both partners purified",
  "data": [
    {"binder": "B1", "values": [
      {"measurement": "stoichiometry N", "value": 1}
    ]}
  ]
}
